This note sets out measurements from patent US20160002318A1.

Holding throughout (test): cell-based or functional assay
Test [1] has as its target HA of influenza B virus B/Brisbane/60/2008 (live virus) (influenza B virus B/Brisbane/60/2008).
The target of test [2] is HA of influenza B virus B/Florida/04/2006 (live virus) (influenza B virus B/Florida/04/2006).
In test [3] the target is HA of influenza B virus B/Harbin/7/1994 (live virus) (influenza B virus B/Harbin/7/1994).
For test [4], the target named is HA of influenza B virus B/Malaysia/2506/2004 (live virus) (influenza B virus B/Malaysia/2506/2004).

B1: CR11039 (antibody, V domains shown)
VH: EVQLVQSGAEVKKPGESVKISCKTSGYAFTGYGISWVRQAPGQGLEWMGWINTYKFNTNYAQNLQGRVTMTIDTSTSAAYMELRSLRYEDTAVYFCARDWAGPFGNAFDVWGQGTMVTVSS
VL: IQMTQSPSSLSASIGDRVAITCQASQDISDYLNWYQQQPGKAPKLLLYGASNLETGVPSRFSGSGSGTDFTFTISSLQPEDIATYYCQQYGNLPPTFGGGTKLEIK
On to B1, for which the HI titers is 0.44 µg/mL in test [1] and 0.63 µg/mL in test [2]. In addition, the VNA titers in test [1] was under 0.14 µg/mL; in test [2], under 0.06 µg/mL; in test [3], 0.02 µg/mL. The molecule also registered a VNA titers in µg/ml (*assay was done with 25 TCIDs) in test [4] of 0.06 µg/mL.

B2: CR8031 (antibody, V domains shown)
VH: EVQLVESGGGLVQPGRSLRLSCAASGFTFDEYIMHWVRQAPGKGPEWVAGINWKGNFMGYADSVQGRFTISRDNAKNSLYLQMNSLRADDTALYYCAKDRLESSAMDILEGGTFDIWGQGTMVT
VL: QSALTQPASVSGSPGQSITISCTGTSSDVGGYNYVSWYQQHPGKAPKLMIYDVSSRPSGVSNRFSGSKSGDTASLSISGLQAEDEADYYCSSYTSSSTHVFGTGTKVTVL
Consider B2, for which the VNA titers in test [2] worked out at 0.88 µg/mL; in test [3], 1.24 µg/mL. In test [4], this molecule registered a VNA titers in µg/ml (*assay was done with 25 TCIDs) of over 50 µg/mL.

B3: CR8033 (antibody, V domains shown)
VH: EVQLVETGGGLVQPGRSLRLSCAASGFSFDEYTMHWVRQAPGKGLEWVAGINWKGNFMGYADSVQGRFTISRDNGKNSLYLQMNSLRAEDTALYYCAKDRLESSAMDILEGGTFDIWGQGTMVT
VL: EIVLTQSPGTLSLSPGERATLSCRASQSVSSSYLAWYQQKPGQAPRLLIYGASTRATGIPARFSGSGSGTDFTLTISRLEPEDLAVYYCQQYGSSPWTFGQGTKVEIK
Turning to B3, the HI titers in test [1] was over 50 µg/mL; in test [2] it was 0.22 µg/mL; in test [3], 0.39 µg/mL; in test [4] it was over 50 µg/mL. The VNA titers in test [1] came out at 5.95 µg/mL; in test [2], 0.02 µg/mL; in test [3], 0.03 µg/mL. This molecule also came in with a VNA titers in µg/ml (*assay was done with 25 TCIDs) in test [4] of 0.88 µg/mL.

B4: CR11036 (antibody, V domains shown)
VH: EVQLVQSGAEVKKPGASVTVSCKASGYAFTSYYLHWVRQAPGQGLEWMGIMNLHGGSTTYAQKFQGRVTMTRDTSTRTVYMELSGLRSEDSAVYYCARESPDSSGYPGYYGMDVWGQGTTVTVSS
VL: EIVLTQSPGTLSLSPGERATLSCRASQSVSSDFFAWYQQKRGQTPTLLIYGTSTRATGIPDRFSGSGSGTDFTLSVARLEPEDFAVYYCQQYGSSTWTFGQGTKVEIK
Consider B4, for which the HI titers in test [1] and in test [2] was over 10 µg/mL each time. For the same molecule, the VNA titers in test [1] was under 0.14 µg/mL; in test [2], under 0.06 µg/mL; in test [3], 0.02 µg/mL. For the same molecule, the VNA titers in µg/ml (*assay was done with 25 TCIDs) in test [4] worked out at 0.22 µg/mL.

B5: CR11038 (antibody, V domains shown)
VH: EVQLVESGAEVKKPGASVKVSCKASGYAFTSYYLHWVRQAPGQGLEWMGIMNPHGGSTTYAQKFQGRVTMTRDTSTSTVYMELSSLRSEDTAVYYCARESPDSSGYPGYYGMDVWGQGTTVTVSS
VL: SYELTQPPSASGTPGQRVTMSCSGSRSNIGSNPVSWFQQLPGMVPKLLIYTNDQRPSGVPDRFSGSKSGPSASLAISGLQSEDEADYYCAAWDDSLKGWVFGGGTKLTVL
Take B5: the results for the HI titers in test [1] and in test [2] were 0.31 µg/mL and 1.25 µg/mL, respectively. Besides, the VNA titers in test [1] is 0.55 µg/mL; in test [2] it was under 0.06 µg/mL; in test [3], 0.05 µg/mL. The VNA titers in µg/ml (*assay was done with 25 TCIDs) in test [4] was found to be 2.1 µg/mL.

B6: CR8034 (antibody, V domains shown)
VH: EVQLVETGGGLVQPGRSLRLSCAASGFTFDEYIMHWVRQAPGKGPEWVAGINWKGNFMGYADSVQGRFTISRDNAKNSLYLQMNSLRADDTALYYCAKDRLESSAMDILEGGTFDIWGQGTMVTVSS
VL: DIQMTQSPSSLSASVGDRVTITCRASQGIRNDLGWYQQKPGKAPKRLIYAASSLQSGVPSRFSGSGSGTDFTLTISSLQPEDFATYYCQQANTYPLTFGGGTKLEIK
As for B6, the VNA titers was 0.12 µg/mL in test [2] and 0.29 µg/mL in test [3]. In test [4], this molecule yielded a VNA titers in µg/ml (*assay was done with 25 TCIDs) of 2.31 µg/mL.

B7: CR8035 (antibody, V domains shown)
VH: EVQLVESGGGLVQPGRSLRLSCAASGFTFDEYIMHWVRQAPGKGPEWVAGINWKGNFMGYADSVQGRFTISRDNAKNSLYLQMNSLRADDTALYYCAKDRLESSAMDILEGGTFDIWGQGTMVTVSS
VL: SSELTQDPAVSVALGQTVRITCQGDSLRSYYASWYQQKPGQAPVLVIYGKNNRPSGIPDRFSGSSSRNTASLTITGAQAEDEADYYCDSRDSSGTHYVFGGGTKVTVL
Turning to B7, the VNA titers in test [2] and in test [3] was 0.66 µg/mL throughout. The VNA titers in µg/ml (*assay was done with 25 TCIDs) in test [4] was determined as 4.46 µg/mL.

B8: CR8032 (antibody, V domains shown)
VH: EVQLVESGGGLVQPGRSLRLSCAASGFSFDEYIMHWVRQAPGKGLEWVAGINWKGNFMGYADSVQGRFTISRDNGKNSLYLQMNSLRAEDTALYYCAKDRLESSAMDILEGGTFDIWGQGTMVTVSS
VL: QSALTQPASVSGSPGQSITISCTGTRRDVGDYKYVSWYQQHPGKAPKLMIYDVSNRPSGVSNRFSGSKSGTTASLTISGLQAEDEADYYCSSYTTSNTRVFGGGTKLTVL
As for B8, the VNA titers in test [2] and in test [3] was 0.69 µg/mL each time. This molecule also registered a VNA titers in µg/ml (*assay was done with 25 TCIDs) in test [4] of 3.88 µg/mL.

B9: CR8059 (antibody, V domains shown)
VH: EVQLVQSGAEVKKPGASVRVSCRASGYIFTESGITWVRQAPGQGLEWMGWISGYSGDTKYAQKLQGRVTMTKDTSTTTAYMELRSLRYDDTAVYYCARDVQYSGSYLGAYYFDYWSPGTLVTVSS
VL: SYVLTQPPSASGTPGQRVTISCSGSSSNIGTNYVYWYQQFPGTAPKLLIYRSYQRPSGVPDRFSGSKSGSSASLAISGLQSEDEADYYCATWDDSLNGWVFGGGTKLTVL
Consider B9, for which the HI titers in test [1], in test [2], in test [3] and in test [4] was over 50 µg/mL in each case. Moreover, the VNA titers in test [1] turned out to be 4.55 µg/mL; in test [2] it was 3.23 µg/mL; in test [3] it was 2.39 µg/mL. The molecule further came in with a VNA titers in µg/ml (*assay was done with 25 TCIDs) in test [4] of 17.7 µg/mL.

B10: CR8071 (antibody, V domains shown)
VH: QVQLVQSGAEVKKPGASVRVSCRASGYIFTESGITWVRQAPGQGLEWMGWISGYSGDTKYAQKLQGRVTMTKDTSTTTAYMELRSLRYDDTAVYYCARDVQYSGSYLGAYYFDYWSPGTLVTVSS
VL: QSVLTQPPSASGTPGQRVTISCSGSSSNIGTNYVYWYQQFPGTAPKLLIYRSYQRPSGVPDRFSGSKSGSSASLAISGLQSEDEADYYCATWDDSLDGWVFGGGTKLTVLR
As to B10, the HI titers in test [1], in test [2], in test [3] and in test [4] was over 50 µg/mL throughout. The results for the VNA titers in test [1], in test [2] and in test [3] were 3.72 µg/mL, 2.12 µg/mL and 2.34 µg/mL, respectively. The same molecule returned a VNA titers in µg/ml (*assay was done with 25 TCIDs) in test [4] of 14.9 µg/mL.

B11: CR11035 (antibody, V domains shown)
VH: QVQLVQSGAEVKKPGSSVKVSCKTSGYAFNGYGISWVRQAPGQGLEWVAWINTYKVNTHYAQNLRGRVTVSIDTSTTTAYMELRSLRSDDTAVYYCARDWGGPFGNAFDFWGQGTMVTVSS
VL: DIQMTQSPSSLAASIGDSVTITCRASQSVGSYLNWYQQKPGKAPKLLIYGASNVQSGVPSRFSGSESGTESTLTINNLQPEDSATYYCQQSYSTPRTFGQGTKVEIK
Regarding B11, the values for the HI titers in test [1] and in test [2] were 0.26 µg/mL and over 10 µg/mL, respectively. Besides, the VNA titers in test [1] was 0.93 µg/mL; in test [2], under 0.06 µg/mL; in test [3], 0.16 µg/mL. The VNA titers in µg/ml (*assay was done with 25 TCIDs) in test [4] is 0.53 µg/mL.

B12: CR10023 (antibody, V domains shown)
VH: EVQLVETGGGLVQPGRSLRLSCAASGFTFDDYAMHWVRQAPGKGLEWVSGINWVSTTMGYADSVKGRFTISRDNAKNSLYLQMNSLRAEDTALYYCAKDRLESAAIDILEGGTFDIRGQGTMVTVSS
VL: QSALTQPPSASGSPGQSVTISCTGTSSDVGGYNYVSWYQQHPGKAPKLMIYDVSKRPSGVPDRFSGSKSGNTASLTISGLQAEDEAEYYCSSYASGSTYVFGTGTKVTVL
For the molecule B12, the HI titers in test [1] was over 50 µg/mL; in test [2], 1.56 µg/mL; in test [3], 1.1 µg/mL; in test [4] it was over 50 µg/mL. Also, the VNA titers in test [1] is 7.07 µg/mL; in test [2], under 0.55 µg/mL; in test [3], 0.26 µg/mL. Besides, the VNA titers in µg/ml (*assay was done with 25 TCIDs) in test [4] came to 12.5 µg/mL.
